4 molecules from PMC5322571, “Selection of DNA Aptamers for Ovarian Cancer Biomarker CA125 Using One-Pot SELEX and High-Throughput Sequencing” can be followed below.

Settings in all cases: protein: commercial; label: 5' TEX615 (Texas Red) for FA; FAM for APCE; single strand
Data set [1] addresses T1, CA125 (Cancer Antigen 125, mucin glycoprotein) (human, UniProt Q8WXI7 1-14451). The experiment in a line: fluorescence anisotropy; FA: 100 nM aptamer heat cycled in TGKM (25 mM Tris, 192 mM glycine, 5 mM KH2PO4, 1 mM MgCl2, pH 8.3), CA125 0-2000 U/mL in PBS, 0.13 mg/mL BSA, 90 min RT, read.
The target of data set [2] is T1, CA125 (Cancer Antigen 125, mucin …). Description: fluorescence anisotropy; heat cycled with Mg2+ (5 mM in Results; TGKM is 1 mM in Methods); FA: 100 nM aptamer heat cycled in TGKM (25 mM Tris, 192 mM glycine, 5 mM KH2PO4, 1 mM MgCl2, pH 8.3), CA125 0-2000 U/mL in PBS, 0.13 mg/mL BSA, 90 min RT, read. In general terms: Fluorescence polarisation rises when a labelled molecule tumbles more slowly, as on binding a larger partner.

Data set [3] has the same target. Description: affinity probe capillary electrophoresis; TGKM (1 mM Mg2+); FA: 100 nM aptamer heat cycled in TGKM (25 mM Tris, 192 mM glycine, 5 mM KH2PO4, 1 mM MgCl2, pH 8.3), CA125 0-2000 U/mL in PBS, 0.13 mg/mL BSA, 90 min RT, read.
Data set [4] shares this target. Description: affinity probe capillary electrophoresis; heat cycled in TE without Mg2+; TGK run buffer; FA: 100 nM aptamer heat cycled in TGKM (25 mM Tris, 192 mM glycine, 5 mM KH2PO4, 1 mM MgCl2, pH 8.3), CA125 0-2000 U/mL in PBS, 0.13 mg/mL BSA, 90 min RT, read.
Data set [5] shares this target. Description: fluorescence anisotropy; heat cycled in PBS without Mg2+; FA: 100 nM aptamer heat cycled in TGKM (25 mM Tris, 192 mM glycine, 5 mM KH2PO4, 1 mM MgCl2, pH 8.3), CA125 0-2000 U/mL in PBS, 0.13 mg/mL BSA, 90 min RT, read.

B1: CA125_2 (without primer regions) (ssDNA)
DNA: CACTCTTTCATTTTATTTATAATTAT
On to B1, for which the binding result in data set [1] is on record as “no binding”.

B2: CA125_3 (without primer regions) (ssDNA)
DNA: TTCAATATTACTTATCTTTTTTTTT
In the case of B2, in data set [1], the binding result is on record as “no binding”.

B3: CA125_1 (CA125_1_NP, without primer regions) (ssDNA)
DNA: ACTAGCTCCGATCTTTCTTATCTAC
Turning to B3, the Kd is 207 ± 109 U/mL in data set [2] and 80 ± 38 U/mL in data set [3].

B4: CA125_12 (CA125_12_NP, without primer regions) (ssDNA)
DNA: TGCCTTATTACTCTCTCCTGTTAAC
As to B4, the Kd in data set [4] stood at 131 ± 93 U/mL; in data set [5], 118 ± 123 U/mL.
